# Source: US20240034757A1
# B1: P1126_AMBCA (protein)
# chain: KPQILQRTDKSTDSEWDPQTCPETCIPSKNITCSDGCVCVKLGEEEEGTCFNMTGVDWLGSPSDD
# Biological target: CXCL9_HUMAN (human) (UniProt Q07325)
# Experiment: yeast surface display FACS re-test
# Sequence of CXCL9_HUMAN (human) (Q07325 23-125 limits assumed): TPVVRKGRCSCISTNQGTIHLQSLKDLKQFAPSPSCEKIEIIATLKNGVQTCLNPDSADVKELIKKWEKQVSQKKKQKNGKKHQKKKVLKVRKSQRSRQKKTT
binder,measurement,value
B1,% cells over threshold fluorescence,56%
